Source: patent publication US20240209086A1 (PETMEDIX, published 2024)
Substitutions are numbered along the chain they refer to. Values belong to the binder of their own block, whether it stands above or below them.

Target: canine CD3 on canine T cells (canine PBMC) (canine, UniProt P27597 22-202)
Assay: cell-based or functional assay

Chain of canine CD3 on canine T cells (canine PBMC) (P27597 22-202 limits assumed, chain 1 of 3): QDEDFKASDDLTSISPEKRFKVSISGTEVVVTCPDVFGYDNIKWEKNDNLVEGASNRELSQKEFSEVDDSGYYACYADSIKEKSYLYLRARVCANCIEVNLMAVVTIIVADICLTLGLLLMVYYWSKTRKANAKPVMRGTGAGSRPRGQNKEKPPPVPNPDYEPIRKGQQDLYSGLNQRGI
Chain of canine CD3 on canine T cells (canine PBMC) (chain, as listed by the source limits assumed, chain 2 of 3): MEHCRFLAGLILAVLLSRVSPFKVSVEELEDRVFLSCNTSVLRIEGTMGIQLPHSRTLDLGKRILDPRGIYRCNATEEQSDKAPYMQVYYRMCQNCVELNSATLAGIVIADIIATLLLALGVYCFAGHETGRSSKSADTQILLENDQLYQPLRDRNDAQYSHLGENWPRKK
Chain of canine CD3 on canine T cells (canine PBMC) (chain, as listed by the source limits assumed, chain 3 of 3): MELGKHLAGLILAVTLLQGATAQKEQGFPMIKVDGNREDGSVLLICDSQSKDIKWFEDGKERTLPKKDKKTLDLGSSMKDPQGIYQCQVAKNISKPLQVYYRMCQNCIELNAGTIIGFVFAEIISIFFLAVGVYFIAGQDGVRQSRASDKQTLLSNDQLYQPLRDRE

B3: PMX179 (monospecific anti-canine CD3, canine IgG-B effector function deficient Fc) (antibody, V domains shown)
VH: ELALQESGPGLVRPSQTLSLTCVVSGGSVTRSYYWNWIRQRPGRGLEWMGYWTGTTIYNPAFQGRISITVDTAKNQFSLHLISMTTEDTAVYYCGREGGSSLGAIAYWGQGTRVTVSS
VL: SYVLTQLPSKNVTLKQPAHITCGGDNIGSKSVHWYQQKLGQAPVLIIYYDSSRPTGIPERFSGANSGNTATLTISGALAEDEADYYCQVWDSSAKAAVFGGGTHLTVL
CD25 Activation, Day 6, IS: 8.73
CD25 Activation, Day 6, PB: 22
CD25 Activation, Day 9, IS: 10.9
CD25 Activation, Day 9, PB: 22.9
IFNy Concentration pg/ml, Day 6, IS: 43.4 pg/mL
IFNy Concentration pg/ml, Day 9, IS: 162 pg/mL
IFNy Concentration pg/ml, Day 9, PB: 2750 pg/mL
Ki67 Proliferation, Day 6, IS: 1.27
Ki67 Proliferation, Day 6, PB: 0.48
Ki67 Proliferation, Day 9, IS: 2.06
Ki67 Proliferation, Day 9, PB: 0.31

B5: PMX182 (monospecific anti-canine CD3, canine IgG-B effector function deficient Fc) (antibody)
heavy: EVQLVESGGDLVKPGGSLRLSCVTSGFTFSNYHMNWVRQAPGKGLQWVAYINSGGSSTSYADAVKGRFTISRDNAKNTLYLQMNSLRAEDTAMYYCASDWDYCADDTCEGMGYWGHGTSLFVSSASTTAPSVFPLAPSCGSTSGSTVALACLVSGYFPEPVTVSWNSGSLTSGVHTFPSVLQSSGLYSLSSMVTVPSSRWPSETFTCNVAHPASKTKVDKPVPKRENGRVPRPPDCPKCPAPESLGGPSVFIFPPKPKDTLLIARTPEVTCVVVDLGREDPEVQISWFVDGKQMQTAKTQPREEQFNGTYRVVSVLPIGHQDWLKGKQFTCKVNHIGLPSPIERTISKARGQAHQPSVYVLPPSREELSKNTVSLTCLIKDFFPPDIDVEWQSNGQQEPESKYRTTPPQLDEDGSYFLYSKLSVDKSRWQRGDTFICAVMHEALHNHYTQKSLSHSPGK
VL: B3 VL with A97W, G101E, H104Q
CD25 Activation, Day 6, IS: 7.88
CD25 Activation, Day 6, PB: 5.89
CD25 Activation, Day 9, IS: 14.6
CD25 Activation, Day 9, PB: 21.4
IFNy Concentration pg/ml, Day 6, IS: 50.2 pg/mL
IFNy Concentration pg/ml, Day 9, IS: 1340 pg/mL
IFNy Concentration pg/ml, Day 9, PB: 1470 pg/mL
Ki67 Proliferation, Day 6, IS: 2.01
Ki67 Proliferation, Day 6, PB: 0.7
Ki67 Proliferation, Day 9, IS: 1.72
Ki67 Proliferation, Day 9, PB: 1.55

B9: PMX183 (monospecific anti-canine CD3, canine IgG-B effector function deficient Fc) (antibody, V domains shown)
VH: ELTLQESGPGLVKPSQTLSLTCVVSGGSVTNSYYWNWIRQRPGRELEWMGYWTGGTKYNPAFQGRISISADTAKNQFSLQLTSMTTEDTAVYYCARDRDRRVPHAYGYWGQGTLVTVSS
VL: B3 VL with A97S
CD25 Activation, Day 6, IS: 13.3
CD25 Activation, Day 6, PB: 13.6
CD25 Activation, Day 9, IS: 10.1
CD25 Activation, Day 9, PB: 13.3
IFNy Concentration pg/ml, Day 6, IS: 63.7 pg/mL
IFNy Concentration pg/ml, Day 9, IS: 153 pg/mL
IFNy Concentration pg/ml, Day 9, PB: 145 pg/mL
Ki67 Proliferation, Day 6, IS: 1.61
Ki67 Proliferation, Day 6, PB: 0.36
Ki67 Proliferation, Day 9, IS: 1.99
Ki67 Proliferation, Day 9, PB: 0.48

B10: PMX180 (monospecific anti-canine CD3, canine IgG-B effector function deficient Fc) (antibody, V domains shown)
VH: ELTLQESGPGLVKPSQTLSLTCVVSGGSVTSNYYWNWIRQRPGRGLEWMGYWTGSTNYNPAFQGRISITADTAKKQFSLQLRSMTIEDTAVYYCARRGIPIFFDYWGQGTLVTVSS
VL: SYVLTQLPSKNVTLKQPAHITCGGDNIGSKSVHWYQQKLGQAPVLIIYYDSSRPTGIPERFSGANSGNTATLTISGALAEDEADYYCQVWDSSASVFGGGTHLTVL
CD25 Activation, Day 6, IS: 10.7
CD25 Activation, Day 6, PB: 8.6
CD25 Activation, Day 9, IS: 13.9
CD25 Activation, Day 9, PB: 17
IFNy Concentration pg/ml, Day 6, IS: 55.5 pg/mL
IFNy Concentration pg/ml, Day 9, IS: 318 pg/mL
IFNy Concentration pg/ml, Day 9, PB: 773 pg/mL
Ki67 Proliferation, Day 6, IS: 1.2
Ki67 Proliferation, Day 6, PB: 0.21
Ki67 Proliferation, Day 9, IS: 1.77
Ki67 Proliferation, Day 9, PB: 0.58

B11: PMX181 (monospecific anti-canine CD3, canine IgG-B effector function deficient Fc) (antibody, V domains shown)
VH: ELTLQESGPGLVKPSQTLSLTCIVSGGSVTNNYYWTWIRQRPGRGLEWMGYWTGFTNYNPAFQGRISIIANTAKKQLSLQLSSLTTEDTAVYYCARRAIPTYFDYWGQGTLVTVSS
VL: B10 VL with K30R
CD25 Activation, Day 6, IS: 10.6
CD25 Activation, Day 6, PB: 5.68
CD25 Activation, Day 9, IS: 9.09
CD25 Activation, Day 9, PB: 23.9
IFNy Concentration pg/ml, Day 6, IS: 33.1 pg/mL
IFNy Concentration pg/ml, Day 9, IS: 118 pg/mL
IFNy Concentration pg/ml, Day 9, PB: 1690 pg/mL
Ki67 Proliferation, Day 6, IS: 2.15
Ki67 Proliferation, Day 6, PB: 0.55
Ki67 Proliferation, Day 9, IS: 2.69
Ki67 Proliferation, Day 9, PB: 0.7

The remaining lines, values ahead:

CD25 Activation, Day 6, IS: 13
CD25 Activation, Day 6, PB: 17.3
CD25 Activation, Day 9, IS: 7.96
CD25 Activation, Day 9, PB: 17.1
IFNy Concentration pg/ml, Day 6, IS: 133 pg/mL
IFNy Concentration pg/ml, Day 9, IS: 170 pg/mL
IFNy Concentration pg/ml, Day 9, PB: 568 pg/mL
Ki67 Proliferation, Day 6, IS: 1.46
Ki67 Proliferation, Day 6, PB: 0.21
Ki67 Proliferation, Day 9, IS: 1.49
Ki67 Proliferation, Day 9, PB: 1.11
B1: PMX194 (monospecific anti-canine CD3, canine IgG-B effector function deficient Fc) (antibody, V domains shown)
VH: EVQLVESGGDLVKPGGSLRLSCVASGFTFSNYHMSWVRQAPGKGLQWVAYSNSGRMSTDYADAVKGRFTISRDNAKNTLYLQMNSLRPEDTAVYYCATVIYGLFDYWGQGTLVTVSS
VL: DIVMTQTPLSLSVSPGEPASISCKASQSLLYSNGNTYLYWFRQKPGQSPQRLIYKVSKRDSGVPDRFSGSGSGTDFTLRIRRVEADDAGVYYCGQGTQDPYTFSQGTKLEIK

CD25 Activation, Day 6, IS: 10.4
CD25 Activation, Day 6, PB: 16.8
CD25 Activation, Day 9, IS: 7.58
CD25 Activation, Day 9, PB: 14.7
IFNy Concentration pg/ml, Day 6, IS: 63.9 pg/mL
IFNy Concentration pg/ml, Day 9, IS: 208 pg/mL
IFNy Concentration pg/ml, Day 9, PB: 627 pg/mL
Ki67 Proliferation, Day 6, IS: 2.94
Ki67 Proliferation, Day 6, PB: 0.43
Ki67 Proliferation, Day 9, IS: 2.33
Ki67 Proliferation, Day 9, PB: 0.67
B2: PMX195 (monospecific anti-canine CD3, canine IgG-B effector function deficient Fc) (antibody, V domains shown)
VH: EVQLVESGGDLVKPAGSLRLSCMASGFTFSSYSMSWVRQAPEKGLQLVAGINGDGSTTYYTDAVKGRFTISRDNAKNTVYLQMNNLRVEDSAMYYCAKGAGTGDYWGQGTLVTVSS
VL: SYELTQPPSLNVTLRETAHITCGGDRIGSRYVQWIQQNPGQAPVVVIYKDSNRPTGIPERFSGANSGNTATLTISGALAEDEADYYCQVGDSGNWVFGGGTQLTVL

CD25 Activation, Day 6, IS: 10.5
CD25 Activation, Day 6, PB: 23.3
CD25 Activation, Day 9, IS: 9.24
CD25 Activation, Day 9, PB: 14
IFNy Concentration pg/ml, Day 6, IS: 58 pg/mL
IFNy Concentration pg/ml, Day 9, IS: 307 pg/mL
IFNy Concentration pg/ml, Day 9, PB: 2340 pg/mL
Ki67 Proliferation, Day 6, IS: 1.43
Ki67 Proliferation, Day 6, PB: 0.67
Ki67 Proliferation, Day 9, IS: 3.21
Ki67 Proliferation, Day 9, PB: 0
B4: PMX197 (monospecific anti-canine CD3, canine IgG-B effector function deficient Fc) (antibody, V domains shown)
VH: ELTLQESGPGLVKPSQTLSLTCLVSGGSVTRSYYWNWIRQRPGRGLEWMGYWTGSTNYNPAFQGRISIIPDTAKNQFSLQLTSMTTDDTAIYFCAREGGRTLGAFADWGQGTLVTVSS
VL: B3 VL with N26K, S31N, A97S

CD25 Activation, Day 6, IS: 10.4
CD25 Activation, Day 6, PB: 28.8
CD25 Activation, Day 9, IS: 12.3
CD25 Activation, Day 9, PB: 28.2
IFNy Concentration pg/ml, Day 6, IS: 74.8 pg/mL
IFNy Concentration pg/ml, Day 9, IS: 322 pg/mL
IFNy Concentration pg/ml, Day 9, PB: 3290 pg/mL
Ki67 Proliferation, Day 6, IS: 2.42
Ki67 Proliferation, Day 6, PB: 1.47
Ki67 Proliferation, Day 9, IS: 1.64
Ki67 Proliferation, Day 9, PB: 0.75
B6: PMX184 (monospecific anti-canine CD3, canine IgG-B effector function deficient Fc) (antibody, V domains shown)
VH: ELTLQESGPGLVKPSQTLSLTCGVSGGSVTRSHYWNWVRQRPGRGLEWMGYWTGSTNYNPAFQGRISITADTAKNQFSLQLRSMTTEDTAVYFCARETTIPTFFFDYWGQGTLVTVSS
VL: B3 VL with S93G, A97W, G101E, H104Q

CD25 Activation, Day 6, IS: 10.4
CD25 Activation, Day 6, PB: 23
CD25 Activation, Day 9, IS: 6.6
CD25 Activation, Day 9, PB: 17.1
IFNy Concentration pg/ml, Day 6, IS: 34.8 pg/mL
IFNy Concentration pg/ml, Day 9, IS: 160 pg/mL
IFNy Concentration pg/ml, Day 9, PB: 2080 pg/mL
Ki67 Proliferation, Day 6, IS: 0.92
Ki67 Proliferation, Day 6, PB: 1.41
Ki67 Proliferation, Day 9, IS: 0.94
Ki67 Proliferation, Day 9, PB: 0
B7: PMX196 (monospecific anti-canine CD3, canine IgG-B effector function deficient Fc) (antibody, V domains shown)
VH: ELTLQESGPGLVKPSQTLSLTCVVSGGSVTSSYYWNWIRQRPGRGLEWMGYWTGSTIYNPAFQGRISITADTAKNQFSLQLSSMTTEDTAVYFCVRERRMAFGSWGQGTLVIVSS
VL: B3 VL with N11S, S29R, Y48S, Y49F, S51N, S52N, A97S

CD25 Activation, Day 6, IS: 11.3
CD25 Activation, Day 6, PB: 26.8
CD25 Activation, Day 9, IS: 10.4
CD25 Activation, Day 9, PB: 25.5
IFNy Concentration pg/ml, Day 6, IS: 82.8 pg/mL
IFNy Concentration pg/ml, Day 9, IS: 191 pg/mL
IFNy Concentration pg/ml, Day 9, PB: 2790 pg/mL
Ki67 Proliferation, Day 6, IS: 0.87
Ki67 Proliferation, Day 6, PB: 0.61
Ki67 Proliferation, Day 9, IS: 4.37
Ki67 Proliferation, Day 9, PB: 0
B8: PMX198 (monospecific anti-canine CD3, canine IgG-B effector function deficient Fc) (antibody, V domains shown)
VH: EFTLQESGPGLVKPSQTLSLTCIVSGGSVTSSYYWNWIRQRPGRGLEWMGYWTGSTNYNPAFQGRISITPDTAKNQFSLQLSSMTTEDTAVYYCAREGGSSLQAFGNWGQGTLVTVSS
VL: B3 VL with S29R, V44I, A97S

CD25 Activation, Day 6, IS: 8.3
CD25 Activation, Day 6, PB: 11.1
CD25 Activation, Day 9, IS: 12.6
CD25 Activation, Day 9, PB: 16.1
IFNy Concentration pg/ml, Day 6, IS: 52.6 pg/mL
IFNy Concentration pg/ml, Day 9, IS: 544 pg/mL
IFNy Concentration pg/ml, Day 9, PB: 401 pg/mL
Ki67 Proliferation, Day 6, IS: 0.64
Ki67 Proliferation, Day 6, PB: 0.11
Ki67 Proliferation, Day 9, IS: 1.53
Ki67 Proliferation, Day 9, PB: 0.18
B12: PMX193 (monospecific anti-canine CD3, canine IgG-B effector function deficient Fc) (antibody, V domains shown)
VH: EVQLVESGGDLVKPGGSLRLSCVASGFTFSTYHMSWVRQAPGKGLQWVAYISSGGSRTNYADAVKGRFTISRDNAKNTLYLQMNSLRAEDAAVFYCARHYGSSLFDYWGQGTLVTVSS
VL: DIVMTQTPLSLSVSPGEPASISCKASQSLLHINGNTYLYWFRQKPGQSPQRLIYKVSNRDPGVPDRFSGSGSGTDFTLRISRVEADDAGVYYCGQGIQDPTFGKGTHLEIK
